Measured values taken from patent publication US11260100B2, “Compositions targeting the interaction domain between p27Kip1 and Brk and methods of use thereof to inhibit p27 Y phosphorylation and cdk4 activity” (The Research Foundation for the State University of New York, priority 2014, dated 2022).

Molecular target: T1, Brk phosphorylation of p27 (Homo sapiens, UniProt P46527+Q13882)
T1 construct: were incubated with p27 before the addition of full length Brk and ATP; We incubated full length p27 with Src or Brk in the presence of ATP; purchased SignalChem (GST-PTK6/Brk) or Invitrogen (His-PTK6/Brk); host or cells: p27 made in house in E. coli
T1 sequence (Q13882 whole entry): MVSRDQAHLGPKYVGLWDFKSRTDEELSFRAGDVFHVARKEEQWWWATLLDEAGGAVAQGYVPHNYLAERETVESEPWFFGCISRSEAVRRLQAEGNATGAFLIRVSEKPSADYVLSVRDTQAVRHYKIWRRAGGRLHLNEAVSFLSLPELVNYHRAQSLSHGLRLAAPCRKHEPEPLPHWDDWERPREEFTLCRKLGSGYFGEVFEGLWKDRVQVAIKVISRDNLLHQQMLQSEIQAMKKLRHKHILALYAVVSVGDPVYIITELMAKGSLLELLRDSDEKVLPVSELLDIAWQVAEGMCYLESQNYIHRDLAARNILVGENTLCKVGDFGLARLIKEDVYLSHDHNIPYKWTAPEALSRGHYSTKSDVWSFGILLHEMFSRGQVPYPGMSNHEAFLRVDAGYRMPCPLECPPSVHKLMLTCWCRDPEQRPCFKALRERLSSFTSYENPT
T1 sequence (P46527 whole entry): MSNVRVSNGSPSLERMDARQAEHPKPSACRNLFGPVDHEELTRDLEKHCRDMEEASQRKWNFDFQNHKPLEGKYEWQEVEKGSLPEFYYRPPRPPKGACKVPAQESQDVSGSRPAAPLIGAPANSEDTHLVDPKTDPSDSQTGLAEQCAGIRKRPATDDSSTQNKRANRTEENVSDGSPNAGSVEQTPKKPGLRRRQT
Test: In vitro Brk phosphorylation of p27 with competitor, pY88/pY74 immunoblot
Assay type: biochemical
Settings: increasing amounts of competitor
Experimental: FIGS. 3A-3D: SH3:PxxP interaction is required for p27 Y88 phosphorylation. (FIG. 3A) p27 and Brk were incubated with ATP and with increasing concentrations of the PxxP competitor, F58-106, followed by immunoblot analysis with pY88, pY74 and p27 antibodies. Lane 5: +equimolar amount of F58-106 and p27, lane 6: ++2.5×F58-106, lane 7: +++5×F58-106, lane 8: ++++10×F58-106. (FIG. 3B) GST-Brk, p27 and F58-106 were incubated, immunoprecipitated with GST antibodies, followed by immunblot analysis with GST or p27 antibodies. (FIG. 3C) Increasing amounts of GST-SH3, GST-SH2 or GST peptides were incubated with p27, followed by immunoblot analysis with pY88, pY74, p27 and GST antibodies. Lanes 3, 5, 7: 2.5× competitor, lanes 4, 6, […]: 5× competitor. (FIG. 3D) GST-SH3, GST-SH2 or GST peptides were incubated with p27 or ΔK1/K3, followed by metal agarose chromatography and immunoblot analysis with GST and p27 antibodies. Loading control: GST peptides added to the reaction which are not representative of association.
FIGS. 8A-8G: Alt Brk (SEQ ID NO: 17) acts as an endogenous inhibitor of Brk. […]
To directly verify this, we expressed a Flag-tagged Alt-Brk in bacteria and purified this 15 Kd protein (FIG. 8A). When p27 was incubated with Brk, Y88 and Y74 phosphorylation was detected by immunoblot analysis (FIG. 8A, lane 3). […]

B1: Alt-Brk: alternative splice variant of Brk (SEQ ID NO: 17), 15 KD protein with SH3 domain, lacks kinase domain (protein, listed as Homo sapiens)
chain: MVSRDQAHLGPKYVGLWDFKSRTDEELSFRAGDVFHVARKEEQWWWATLLDEAGGAVAQGYVPHNYLAERETVESEPAGHAGCAALQDLAACRGPAAPERGGVLPQPARACELPQGPEPVPRPAAGRALPEARA
  p27 Y74 phosphorylation by Brk: not affected
  p27 Y88 phosphorylation by Brk: decreased
